What was measured:
Experiment in all cases: EMSA
[1] = tested on: RsmA1 (Pseudomonas syringae pv. tomato DC3000)
[2] = tested on: RsmA2 (Pseudomonas syringae pv. tomato DC3000)
[3] = tested on: RsmA3 (Pseudomonas syringae pv. tomato DC3000)
[4] = tested on: RsmA4 (Pseudomonas syringae pv. tomato DC3000)

Row | Substance | binding signal [1] [nM] | binding signal [2] [nM] | binding signal [3] [nM] | binding signal [4] [nM]
1 | rsmX1 | 320 | 40 | 40 | 640
2 | rsmX5 | 320 | 40 | 40 | 640
3 | rsmY | 320 | 40 | 40 | 640
4 | rsmZ | 320 | 40 | 40 | 640

Source: article PMC6715622
